Assay results reported in article PMC8776337, “Peptides Derived from Vascular Endothelial Growth Factor B Show Potent Binding to Neuropilin‐1” (Chembiochem, 2021).
No end group written: not given here.

B1: VEGF‐B167: Vascular endothelial growth factor B isoform 167, immobilised on the sensor chip (protein)
chain: PVSQPDAPGHQRKVVSWIDVYTRATCQPREVVVPLTVELMGTVAKQLVPSCVTVQRCGGCCPDDGLECVPTGQHQVRMQILMIRYPSSQLGEMSLEEHSQCECRPKKKDSAVKPDSPRPLCPRCTQHHQRPDPRTCRCRCRRRSFLRCQGRGLELNPDTCRCRKLRR
B2: b1 domain of neuropilin‐1 (NRP1‐b1) (domain or fragment, human)
chain: FKCMEALGMESGEIHSDQITASSQYSTNWSAERSRLNYPENGWTPGEDSYREWIQVDLGLLRFVTAVGTQGAISKETKKKYYVKTYKIDVSSNGEDWITIKEGNKPVLFQGNTNPTDVVVAVFPKPLITRFVRIKPATWETGISMRFEVYGCKIT
notes: neuropilin-1, human, b1 domain; also called NRP1‐b1 domain; NRP1 b1 domain; source: E. coli Rosetta (DE3), purified (HisTrap, TEV cleavage, Superdex 75, SP FF ion exchange)
B3: MGC0124 (peptide)
chain: SCKNTDSRCKARQLELNERTCRCDKPRR
modifications: disulfide (positions not given here); not fully specified (N-terminus); also: cyclised by disulphide, Cys pairing not given here

What was measured:
[1] = target: T1, NRP1‐b1 binding to VEGF‐A165 (Homo sapiens, UniProt O14786); experiment: SPR EG01377 competition assay, NRP1-b1 binding to immobilised VEGF-A165; conditions: NRP1-b1 5 μM, EG01377 1.25 to 10 μM, 60 s
T1 construct: poly-histidine (TEV-cleavable) (cleaved yes); made in house; host or cells: E. coli Rosetta (DE3) (NRP1-b1 only)
T1 sequence (O14786 275-424 limits assumed): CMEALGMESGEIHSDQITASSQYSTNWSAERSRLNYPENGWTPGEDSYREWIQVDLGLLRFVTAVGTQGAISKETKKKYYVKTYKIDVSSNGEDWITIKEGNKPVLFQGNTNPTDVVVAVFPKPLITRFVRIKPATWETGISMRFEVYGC
Source text: (§1) We have previously reported the use of SPR to characterise the interaction between the immobilized b1 domain of NRP1 (NRP1‐b1) and VEGF‐A‐derived peptides,[23] arginine analogues,[26] and small molecules.[27, 28] When we attempted to measure the binding affinity of VEGF‐B isoforms to immobilized NRP1‐b1 we observed non‐saturable binding responses. Increasing concentrations of VEGF‐B over immobilised NRP1 led to response units (RU) higher than the theoretical maximum for a 1 : 1 interaction. The shape of the curves remained consistent at low and high concentration and was not typical of sample precipitation (fuzzy heterogeneous curves, commonly observed only at higher concentrations). […] We consider that the observations are consistent with oligomerization as a form of non‐specific binding. […] To circumvent this, we immobilized VEGF‐B167 and VEGF‐A165 (Figure 2) onto a sensor chip and measured the binding of NRP1‐b1 domain in solution. Using this method, the binding affinity of NRP1‐b1 to immobilized VEGF‐A165 was 100‐fold lower than previously observed when the interaction was measured in reverse experimental configuration.[23] […] We then sought to investigate if binding could be blocked by a known inhibitor of the VEGF‐A interaction with NRP1‐b1. […]

[2] = target: T2, NRP1‐b1 binding to VEGF‐B167 (Homo sapiens, UniProt O14786); experiment: SPR EG01377 competition assay, NRP1-b1 binding to immobilised VEGF-B167; conditions: NRP1-b1 5 μM, EG01377 6.25 to 50 μM, 60 s
T2 construct: poly-histidine (TEV-cleavable) (cleaved yes); made in house; host or cells: E. coli Rosetta (DE3) (NRP1-b1 only)
T2 sequence (O14786 275-424 limits assumed): T1 sequence (O14786 275-424 limits assumed)
Source text: as §1

VEGFs = experiment: SPR direct binding of EG01377 to immobilised VEGFs; design: species or system human; conditions: immobilised VEGF-A165 and VEGF-B167
Source text: as §1

NRP1‐b1 = target: T3, NRP1‐b1 (Homo sapiens, UniProt O14786); experiment: SPR binding of NRP1-b1 in solution to immobilised VEGFs; conditions: VEGF immobilised on CM5 chip, NRP1-b1 0.25 to 64 μM in PBS, 60 s, steady-state, 1:1 interaction, 25 °C, read-out: KD of NRP1‐b1 for immobilized VEGF
T3 construct: the immobilized b1 domain of NRP1 (NRP1‐b1); poly-histidine (TEV-cleavable) (cleaved yes); made in house; host or cells: E. coli Rosetta (DE3)
T3 sequence (O14786 275-424 limits assumed): T1 sequence (O14786 275-424 limits assumed)
Source text: We have previously reported the use of SPR to characterise the interaction between the immobilized b1 domain of NRP1 (NRP1‐b1) and VEGF‐A‐derived peptides,[23] arginine analogues,[26] and small molecules.[27, 28] When we attempted to measure the binding affinity of VEGF‐B isoforms to immobilized NRP1‐b1 we observed non‐saturable binding responses. Increasing concentrations of VEGF‐B over immobilised NRP1 led to response units (RU) higher than the theoretical maximum for a 1 : 1 interaction. The shape of the curves remained consistent at low and high concentration and was not typical of sample precipitation (fuzzy heterogeneous curves, commonly observed only at higher concentrations). […] We consider that the observations are consistent with oligomerization as a form of non‐specific binding. […] To circumvent this, we immobilized VEGF‐B167 and VEGF‐A165 (Figure 2) onto a sensor chip and measured the binding of NRP1‐b1 domain in solution. Using this method, the binding affinity of NRP1‐b1 to immobilized VEGF‐A165 was 100‐fold lower than previously observed when the interaction was measured in reverse experimental configuration.[23] […]
Binding of NRP1‐b1 to VEGFs: Dose responses were obtained by injecting NRP1‐b1 in PBS over the immobilized VEGFs for 60 s, using two‐fold dilutions from 64 to 0.25 μM. Steady‐state binding affinities were calculated assuming a 1 : 1 interaction.

VEGF‐A165 = target: T4, VEGF‐A165 (human, UniProt P15692-4 1-191); experiment: SPR; VEGF-A165 and VEGF-B167 immobilised on a CM5 chip by random amine coupling; NRP1-b1 in PBS injected for 60 s, two-fold dilutions from 64 to 0.25 μM; 25 °C; steady-state affinity assuming a 1:1 interaction; conditions: both partners purified
T4 construct: vascular endothelial growth factor A, isoform VEGF-A165, human
T4 sequence (P15692 other isoform, or with tags, fused parts or gaps): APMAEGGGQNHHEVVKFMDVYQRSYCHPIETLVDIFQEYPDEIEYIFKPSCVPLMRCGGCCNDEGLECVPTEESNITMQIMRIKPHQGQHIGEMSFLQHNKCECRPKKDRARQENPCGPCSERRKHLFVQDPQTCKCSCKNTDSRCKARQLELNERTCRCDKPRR

VEGF‐B167 = target: T5, VEGF‐B167 (human, UniProt P49765-2 22-188); experiment: as above; conditions: both partners purified
T5 construct: vascular endothelial growth factor B, isoform VEGF-B167, human
T5 sequence (looked up): B1 chain

[3] = target: B2; experiment: SPR; NRP1-b1 immobilised on a CM5 chip by random amine coupling; peptides injected for 60 s, 120 or 180 s dissociation; 25 °C; regeneration with 1 M NaCl; kinetic fit, 1:1 model (MGC0122, MGC0123, MGC0124) or two-state model (MGC0171, MGC0172, MGC0173, MGC0174); conditions: both partners purified

For NCc1ccc(-c2cc3c(c(S(=O)(=O)Nc4ccsc4C(=O)N[C@@H](CCCN=C(N)N)C(=O)O)c2)OCC3)cc1 [EG01377], the “Effect on binding of NRP1‐b1 to immobilised VEGF‐A165” value [1] was “reduced the binding”, the “Effect on binding of NRP1‐b1 to immobilised VEGF‐B167” value [2] was “reduced the binding” and the “Binding to VEGFs” value (VEGFs) was “No binding was observed”.

Work on “VEGF‐A165: Vascular endothelial growth factor A isoform 165, immobilised on the sensor chip” yielded a Kd (NRP1‐b1) of 9 µM.

B1 was tested, and the Kd (NRP1‐b1) was 36 µM.

For B2, the Kd (VEGF‐A165) was 9 µM and the Kd (VEGF‐B167) was 36 µM.

B3 was tested, and the Kd [3] was 3.33 ± 0.1 µM.
